Values of other authors as cited in PMC6258349.
Read-outs that look alike come from different tables or passages of the source.

Key:
[1] = biological target: chaperone-adhesin FimC-FimH (Escherichia coli) (UniProt P31697)
[2] = biological target: chaperone-adhesin FimC-FimH (Escherichia coli) (UniProt P31697); remark: listed apart in the source

Chain of UniProt P31697 (P31697 37-241, chain 1 of 2): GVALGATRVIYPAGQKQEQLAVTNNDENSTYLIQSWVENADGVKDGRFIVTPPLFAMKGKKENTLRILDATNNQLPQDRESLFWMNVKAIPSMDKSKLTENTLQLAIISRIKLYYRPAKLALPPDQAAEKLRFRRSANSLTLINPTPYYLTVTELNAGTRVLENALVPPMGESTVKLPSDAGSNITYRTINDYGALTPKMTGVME
Chain of UniProt P31697 (P08191 22-300, chain 2 of 2, further chain): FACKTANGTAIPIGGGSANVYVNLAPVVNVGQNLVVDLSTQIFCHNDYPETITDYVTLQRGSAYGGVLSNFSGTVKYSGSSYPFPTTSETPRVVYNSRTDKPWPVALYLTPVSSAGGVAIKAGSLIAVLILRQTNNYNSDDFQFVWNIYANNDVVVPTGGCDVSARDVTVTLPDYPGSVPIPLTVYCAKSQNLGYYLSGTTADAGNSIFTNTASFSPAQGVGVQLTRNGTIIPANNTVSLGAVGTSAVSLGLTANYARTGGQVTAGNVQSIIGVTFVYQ

## FimD usher CTD (from UniProt P30130)
[1]
  Kd: 40 nM

## FimD usher NTD (from UniProt P30130)
[2]
  Kd: 389 nM
